First the molecules themselves.
B1: wild-type human ERp23 (protein)
chain: DRAPLTATAPQLDDEEMYSAHMPAHLRCDACRAVAYQMWQNLAKAETKLHTSNSGGRRELSELVYTDVLDRSCSRNWQDYGVREVDQVKRLTGPGLSEGPEPSISVMVTGGPWPTRLSRTCLHYLGEFGEDQIYEAHQQGRGALEALLCGGPQGACSEKVSATREEL
B2: human ERp23 Cys143Ser mutant (protein)
chain: DRAPLTATAPQLDDEEMYSAHMPAHLRCDACRAVAYQMWQNLAKAETKLHTSNSGGRRELSELVYTDVLDRSCSRNWQDYGVREVDQVKRLTGPGLSEGPEPSISVMVTGGPWPTRLSRTSLHYLGEFGEDQIYEAHQQGRGALEALLCGGPQGACSEKVSATREEL
B3: human ERp23 Cys178Ser mutant (protein)
chain: DRAPLTATAPQLDDEEMYSAHMPAHLRCDACRAVAYQMWQNLAKAETKLHTSNSGGRRELSELVYTDVLDRSCSRNWQDYGVREVDQVKRLTGPGLSEGPEPSISVMVTGGPWPTRLSRTCLHYLGEFGEDQIYEAHQQGRGALEALLCGGPQGASSEKVSATREEL
B4: human ERp23 Cys53Ser mutant (protein)
chain: DRAPLTATAPQLDDEEMYSAHMPAHLRCDASRAVAYQMWQNLAKAETKLHTSNSGGRRELSELVYTDVLDRSCSRNWQDYGVREVDQVKRLTGPGLSEGPEPSISVMVTGGPWPTRLSRTCLHYLGEFGEDQIYEAHQQGRGALEALLCGGPQGACSEKVSATREEL
B5: human ERp23 Cys171Ser mutant (protein)
chain: DRAPLTATAPQLDDEEMYSAHMPAHLRCDACRAVAYQMWQNLAKAETKLHTSNSGGRRELSELVYTDVLDRSCSRNWQDYGVREVDQVKRLTGPGLSEGPEPSISVMVTGGPWPTRLSRTCLHYLGEFGEDQIYEAHQQGRGALEALLSGGPQGACSEKVSATREEL
B6: human ERp23 Cys50Ser mutant (protein)
chain: DRAPLTATAPQLDDEEMYSAHMPAHLRSDACRAVAYQMWQNLAKAETKLHTSNSGGRRELSELVYTDVLDRSCSRNWQDYGVREVDQVKRLTGPGLSEGPEPSISVMVTGGPWPTRLSRTCLHYLGEFGEDQIYEAHQQGRGALEALLCGGPQGACSEKVSATREEL
B7: human ERp23 Cys95Ser mutant (protein)
chain: DRAPLTATAPQLDDEEMYSAHMPAHLRCDACRAVAYQMWQNLAKAETKLHTSNSGGRRELSELVYTDVLDRSSSRNWQDYGVREVDQVKRLTGPGLSEGPEPSISVMVTGGPWPTRLSRTCLHYLGEFGEDQIYEAHQQGRGALEALLCGGPQGACSEKVSATREEL
B8: human ERp23 Cys50-178Ser mutant (protein)
chain: DRAPLTATAPQLDDEEMYSAHMPAHLRSDACRAVAYQMWQNLAKAETKLHTSNSGGRRELSELVYTDVLDRSCSRNWQDYGVREVDQVKRLTGPGLSEGPEPSISVMVTGGPWPTRLSRTCLHYLGEFGEDQIYEAHQQGRGALEALLCGGPQGASSEKVSATREEL

The data set concerns the target HA-tagged mini HC (VH-CH1).
For B1, the “oxidation of the CH1 domain of the mini HC” value (from here on “oxidation”) is listed as “co-expression of wild-type human ERp23 resulted in oxidation of the CH1 domain in a portion of the HC even in the absence of LC” and the “percentage of the fully oxidized form of the mini HC” value is “fully oxidizes ˜24% of the mini HC”.

Regarding B2, the “oxidation” value is on record as “All of the remaining single cysteine mutants had significantly reduced activity, which in most cases was similar to that observed when no ERp23 was co-expressed”. Same read-out and setting: the result for B3 reads “also showed some activity, although it was slightly weaker than that observed with wild-type ERp23 or the Cys50Ser mutant”; that for B4, “All of the remaining single cysteine mutants had significantly reduced activity, which in most cases was similar to that observed when no ERp23 was co-expressed”; that for B5, “All of the remaining single cysteine mutants had significantly reduced activity, which in most cases was similar to that observed when no ERp23 was co-expressed”.

For B6, the “percentage of the fully oxidized form of the mini HC” value is given as “showed a similar ability to oxidize the CH1 domain (i.e., 20%)”. As for B7, the “oxidation” value is reported as “All of the remaining single cysteine mutants had significantly reduced activity, which in most cases was similar to that observed when no ERp23 was co-expressed”.

Regarding B8, the “oxidation” value is reported as “only the Cys50-178Ser mutant still retained activity”.

The record behind these values is patent US20090269810.
